Experimental data from patent US20150266957A1 (Regeneron, published 2015).
Substitutions are numbered along the chain they refer to. Names and notes keep the numbering of the source.

B1: H4H6385N (antibody, human IgG4, V domains shown)
VH: EVQVVESGGGLVKPGGSLRLSCAASGFTFSNVWMTWVRQAPGKGLEWVGRIKSKIEGGTTDYAASVKGRFTISRDDSKNTQSLQMNSLKSEDTAVYYCSTGHLAYWGQGTLVIVSS
VL: DIVMTQTPLSSPVSLGQPASISCRSSQSLVHSDGSTYLSWLQQRPGQPPRLLIYKISNRFSGVPDRFSGSGAGTDFTLKISRVEAEDVGIYYCMQATQFPTFGQGTKVEIK
notes: Form used in SPR and calcium assays; also called H4HM6385N
B2: H4H6663P (antibody, human IgG4, V domains shown)
VH: EVQLVESGGGLVKPGGSLRLSCAASGFTFSNAWMSWVRQVPGKGLEWVGRIKSKTDGGTTDYAAPVKGRFTISRDDPKNTLYLQMYSLKTEDTAVYYCTTRSMQYWGQGTLVTVSS
VL: B1 VL with S14T, S35Y, S39N
B3: H2M6385N (antibody, V domains shown)
VH: B1 VH
VL: B1 VL
notes: the prefix H2M is not spelled out
B4: H4H6706P (antibody, human IgG4, V domains shown)
VH: EVQLVESGGGLIKPGGSLRLSCAASGFTFSNAWMSWVRQAPGKGLEWVGRIKRKSDGGTTDYAAPVKGRFTISRDDSKNTMYLQMNSLKTEDTAVYYCTPSGSYYGYWGQGTLVTVSS
VL: not shown

Key:
cynomolgus monkey PROKR1 [1] = target: T1, cynomolgus monkey PROKR1 (cynomolgus monkey (Macaca fascicularis), UniProt G7PMD0 1-393); assay: cell-based or functional assay
T1 sequence (G7PMD0 entry or part of it): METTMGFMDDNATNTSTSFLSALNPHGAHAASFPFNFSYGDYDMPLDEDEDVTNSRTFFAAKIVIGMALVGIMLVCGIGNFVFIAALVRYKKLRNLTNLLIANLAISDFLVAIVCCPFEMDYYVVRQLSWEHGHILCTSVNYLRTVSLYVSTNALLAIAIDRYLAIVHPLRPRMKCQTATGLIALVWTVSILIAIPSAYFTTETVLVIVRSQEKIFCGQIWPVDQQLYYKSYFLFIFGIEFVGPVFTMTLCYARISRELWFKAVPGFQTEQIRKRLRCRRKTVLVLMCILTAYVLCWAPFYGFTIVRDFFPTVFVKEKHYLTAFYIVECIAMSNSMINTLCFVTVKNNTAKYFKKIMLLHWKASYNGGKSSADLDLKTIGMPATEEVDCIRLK

human PROKR1 [2] = target: T2, human PROKR1 (human, UniProt Q8TCW9 1-393); assay: cell-based or functional assay
T2 sequence (Q8TCW9 whole entry): as the sequence (G7PMD0 entry or part of it) above, with A22V, A31T, G40S, V82I, I135V, R210K, F246V, N348D, A350V counted along it

human PROKR1 [3] = target: T2, human PROKR1; assay: cell-based or functional assay; remark: listed apart in the source
human PROKR1 (1-62)-hFc = target: T3, human PROKR1 (1-62)-hFc (human); assay: SPR (Biacore 4000), 25 C, antibody captured, antigen injected at 25 and 100 nM
T3 construct: also called soluble human PROKR1 (N-terminal portion)
T3 sequence (chain, as listed by the source limits assumed): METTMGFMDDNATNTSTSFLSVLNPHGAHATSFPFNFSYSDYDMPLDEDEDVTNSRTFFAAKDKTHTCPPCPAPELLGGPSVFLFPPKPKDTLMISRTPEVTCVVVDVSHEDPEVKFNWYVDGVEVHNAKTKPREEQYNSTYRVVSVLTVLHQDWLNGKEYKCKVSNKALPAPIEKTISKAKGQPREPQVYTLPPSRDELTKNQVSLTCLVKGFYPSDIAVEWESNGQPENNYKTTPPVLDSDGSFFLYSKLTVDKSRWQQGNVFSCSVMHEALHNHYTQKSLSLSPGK
Experimental: (§1) Kinetic experiments were carried out using HBS-EP (10 mM HEPES, 150 mM NaCl, 3 mM EDTA, 0.05% Surfactant P20, pH 7.4) as both the running buffer and the sample buffer. Antigen-antibody association rates were measured by injecting 2 concentrations (25 and 100 nM) of both human PROKR1 (1-62)-hFc (SEQ ID NO:179) and human PROKR2(1-53)-hFc (SEQ ID NO:180) over the captured antibody surface. Antibody-antigen association was monitored for 90 seconds while dissociation was monitored for 360 seconds. Kinetic on-rate (kₐ) and off-rate (kd) constants were determined from the data using Scrubber software version 2.0 c. Binding dissociation equilibrium constants (KD) and dissociative half-lives (t 1/2) were calculated from the kinetic rate constants as: KD=kd/kₐ and t 1/2=ln(2)/kd.

human PROKR2(1-53)-hFc [4] = target: T4, human PROKR2(1-53)-hFc (human); assay: as above
T4 construct: also called soluble human PROKR2 (N-terminal portion)
Experimental: as §1

rat PROKR1 = rat PROKR1 (rat (Rattus norvegicus), UniProt Q8R416 1-393); assay: cell-based or functional assay
rat PROKR1, sequence (Q8R416 whole entry): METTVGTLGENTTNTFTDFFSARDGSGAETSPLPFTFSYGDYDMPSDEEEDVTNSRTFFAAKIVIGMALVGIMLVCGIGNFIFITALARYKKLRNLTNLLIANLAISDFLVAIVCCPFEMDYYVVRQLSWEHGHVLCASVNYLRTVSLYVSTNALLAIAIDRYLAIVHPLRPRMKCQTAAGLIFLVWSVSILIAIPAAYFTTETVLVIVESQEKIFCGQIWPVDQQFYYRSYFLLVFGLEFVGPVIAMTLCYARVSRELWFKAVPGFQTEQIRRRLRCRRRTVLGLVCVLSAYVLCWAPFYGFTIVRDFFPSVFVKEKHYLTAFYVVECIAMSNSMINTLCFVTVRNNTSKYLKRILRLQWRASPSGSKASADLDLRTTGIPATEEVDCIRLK

mouse PROKR1 [5] = target: T5, mouse PROKR1 (mouse (Mus musculus), UniProt Q9JKL1 1-393); assay: cell-based or functional assay
T5 sequence (Q9JKL1 whole entry): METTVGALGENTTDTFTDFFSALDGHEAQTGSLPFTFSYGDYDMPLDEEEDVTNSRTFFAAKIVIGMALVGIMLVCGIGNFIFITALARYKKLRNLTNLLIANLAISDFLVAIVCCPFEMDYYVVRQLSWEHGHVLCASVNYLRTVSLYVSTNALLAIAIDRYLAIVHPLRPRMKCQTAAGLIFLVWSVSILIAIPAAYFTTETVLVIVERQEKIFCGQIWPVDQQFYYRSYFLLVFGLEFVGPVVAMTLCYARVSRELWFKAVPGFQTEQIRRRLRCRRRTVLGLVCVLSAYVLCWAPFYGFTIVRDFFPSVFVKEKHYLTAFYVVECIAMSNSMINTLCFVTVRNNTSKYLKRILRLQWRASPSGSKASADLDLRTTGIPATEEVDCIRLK

human PROKR2 [6] = target: T6, human PROKR2 (human, UniProt Q8NFJ6 1-384); assay: flow cytometry, HEK293 cells expressing the target, 13 nM antibody
T6 construct: Expressed on engineered HEK293 or CHO cells; also called hPROKR2; prokineticin receptor 2
T6 sequence (Q8NFJ6 whole entry): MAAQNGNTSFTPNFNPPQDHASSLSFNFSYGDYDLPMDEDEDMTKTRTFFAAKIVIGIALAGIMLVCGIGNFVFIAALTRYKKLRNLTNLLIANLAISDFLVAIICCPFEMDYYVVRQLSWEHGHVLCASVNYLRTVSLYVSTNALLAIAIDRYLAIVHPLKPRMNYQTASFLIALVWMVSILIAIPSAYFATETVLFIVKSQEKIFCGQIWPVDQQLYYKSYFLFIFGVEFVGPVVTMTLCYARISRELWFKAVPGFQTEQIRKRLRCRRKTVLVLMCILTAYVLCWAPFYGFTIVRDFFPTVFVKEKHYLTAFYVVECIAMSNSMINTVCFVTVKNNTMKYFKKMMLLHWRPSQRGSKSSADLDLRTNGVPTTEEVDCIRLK
Experimental: (§2) Anti-PROKR antibodies generated in accordance with Example 1 were tested for the ability to bind to human, mouse, and monkey PROKR1 and PROKR2. For these experiments, HEK293 cells were engineered to express: human PROKR1; human PROKR2; mouse PROKR1; mouse PROKR2; cynomolgus monkey PROKR1; or cynomolgus monkey PROKR2. Binding of anti-human PROKR antibodies to the PROKR-expressing cell lines was measured by flow cytometry.
(§3) Adherent cells were collected using 1 mM EDTA in PBS, then washed, and re-suspended in cold PBS containing 5% FBS. For the binding experiments, each anti-PROKR antibody was added to 250,000 cells in 500 μl of PBS with 5% FBS (final antibody concentration of 13 nM). After incubation for 20 minutes at room temperature, the cells were washed with PBS containing 5% FBS. A secondary antibody, recognizing either human (Jackson Immuno Research, #115-135-205) or mouse Fc (BD Pharmigen, #550826) and conjugated to allophycyanin, was then added to the cell mixture at a final concentration of 13.3 nM. After incubating for 20 minutes on ice, the cells were washed and resuspended in PBS containing 5% FBS and then sorted and analyzed on a FACSCalibur (BD Biosciences) flow cytometer to determine relative binding by the candidate antibodies. The cell samples containing secondary antibody alone were used as negative control for FACS gating. Histograms of cells stained with anti-human PROKR antibodies were compared with cells stained with secondary alone. […] ND=not determined.

mouse PROKR2 = target: T7, mouse PROKR2 (mouse (Mus musculus), UniProt Q8K458 1-381); assay: as above
T7 construct: whole, on cells; Expressed on engineered HEK293 or CHO cells; also called mPROKR2; CHO/mPROKR2
T7 sequence (Q8K458 whole entry): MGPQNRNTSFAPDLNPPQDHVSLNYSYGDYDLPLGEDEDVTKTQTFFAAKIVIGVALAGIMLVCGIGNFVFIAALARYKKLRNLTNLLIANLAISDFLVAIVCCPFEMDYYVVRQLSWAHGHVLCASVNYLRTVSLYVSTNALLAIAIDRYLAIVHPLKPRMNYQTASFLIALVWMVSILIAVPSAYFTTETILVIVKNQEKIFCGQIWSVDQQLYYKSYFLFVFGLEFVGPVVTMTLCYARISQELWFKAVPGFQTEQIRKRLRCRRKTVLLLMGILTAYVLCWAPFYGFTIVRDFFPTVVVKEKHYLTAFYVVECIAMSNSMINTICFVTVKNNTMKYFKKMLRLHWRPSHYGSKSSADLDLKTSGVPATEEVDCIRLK
Experimental: as §2, §3

mouse PROKR1 [7] = target: T5, mouse PROKR1; assay: flow cytometry, HEK293 cells expressing the target
Experimental: as §2, §3

cynomolgus monkey PROKR1 [8] = target: T1, cynomolgus monkey PROKR1; assay: flow cytometry, HEK293 cells expressing the target
Experimental: as §2, §3

human PROKR2 [9] = target: T6, human PROKR2; assay: flow cytometry, HEK293 cells expressing the target
Experimental: as §2, §3

human PROKR2(1-53)-hFc [10] = target: T4, human PROKR2(1-53)-hFc; assay: SPR (Biacore 4000), 25 C, antibody captured
Experimental: as §1

Row | Binder | Kd (human PROKR1 (1-62)-hFc) | koff (human PROKR1 (1-62)-hFc) | kon (human PROKR1 (1-62)-hFc) | t½ (human PROKR1 (1-62)-hFc) | Kd (human PROKR2(1-53)-hFc [4]) | koff (human PROKR2(1-53)-hFc [4]) | kon (human PROKR2(1-53)-hFc [4]) | t½ (human PROKR2(1-53)-hFc [4]) | binding result (human PROKR2 [6]) | Block (%), calcium flux, hPROKR1 + PK1 (20 nM hPK1) (human PROKR1 [2]) | IC50 (nM), inhibition of calcium flux, hPROKR1 + PK1 (20 nM hPK1) (human PROKR1 [2]) | other results
1 | B1 | 0.461 nM | 0.000136 s⁻¹ | 294000 M⁻¹ s⁻¹ | 85 min | 11 nM | 0.00539 s⁻¹ | 489000 M⁻¹ s⁻¹ | 2 min |  |  |  | Block (%), calcium flux, MfPROKR1 + PK1 (5 nM hPK1) (cynomolgus monkey PROKR1 [1]): 101%; Block (%), calcium flux, MfPROKR1 + PK2 (0.5 nM hPK2) (cynomolgus monkey PROKR1 [1]): 93.7%; IC50 (nM), inhibition of calcium flux, MfPROKR1 + PK1 (5 nM hPK1) (cynomolgus monkey PROKR1 [1]): 6.7 nM; IC50 (nM), inhibition of calcium flux, MfPROKR1 + PK2 (0.5 nM hPK2) (cynomolgus monkey PROKR1 [1]): 51.8 nM; Block (%), calcium flux, hPROKR1 + PK1 (1 nM hPK1) (human PROKR1 [2]): 101%; Block (%), calcium flux, hPROKR1 + PK2 (1 nM hPK2) (human PROKR1 [2]): 77.5%; IC50 (nM), inhibition of calcium flux, hPROKR1 + PK1 (1 nM hPK1) (human PROKR1 [2]): 6.3 nM; IC50 (nM), inhibition of calcium flux, hPROKR1 + PK2 (1 nM hPK2) (human PROKR1 [2]): 55.1 nM; IC50 (nM), blocking of hPK1 induced calcium flux, CHO/hPROKR1 non-induced (40 or 80 nM hPK1, average) (human PROKR1 [3]): 14.2 nM; IC50 (nM), blocking of hPK2 induced calcium flux, CHO/hPROKR1 non-induced (4 nM hPK2) (human PROKR1 [3]): 20 nM; Block (%), calcium flux, rPROKR1 + PK1 (1 nM hPK1) (rat PROKR1): 0%; Block (%), calcium flux, mPROKR1 + PK1 (1 nM hPK1) (mouse PROKR1 [5]): 0%
2 | B2 | 10.6 nM | 0.0062 s⁻¹ | 583000 M⁻¹ s⁻¹ | 2 min | 129 nM | 0.0134 s⁻¹ | 104000 M⁻¹ s⁻¹ | 1 min | binds | 15.5% | > 1000 nM | 
3 | B3 |  |  |  |  |  |  |  |  | binds |  |  | binding result (mouse PROKR2): binds; binding result (mouse PROKR1 [7]): no binding; binding result (cynomolgus monkey PROKR1 [8]): no binding
4 | B4 | 1.09 nM | 0.000213 s⁻¹ | 196000 M⁻¹ s⁻¹ | 54 min |  |  |  |  |  | 59.1% | 11.2 nM | binding result (human PROKR2 [9]): no binding; binding result (human PROKR2(1-53)-hFc [10]): no binding (tested: 25 and 100 nM antigen injected)
